Data published in patent US20200017549A1, “NOVEL a4B7 PEPTIDE ANTAGONISTS” (Protagonist Therapeutics, Inc., priority 2013, published 2020).
Bridge positions count the residues as written; N and C are the ends. Square brackets hold non-standard residues; d marks the D form. Ends that are not written are not given here. NMeR = CN[C@@H](CCCNC(=N)N)C(=O)O

Target: T1, α4β7 (RPMI 8866 cells) (Homo sapiens, UniProt P13612+P26010)
T1 construct: host or cells: RPMI 8866 cells
T1 sequence (P13612 34-1032): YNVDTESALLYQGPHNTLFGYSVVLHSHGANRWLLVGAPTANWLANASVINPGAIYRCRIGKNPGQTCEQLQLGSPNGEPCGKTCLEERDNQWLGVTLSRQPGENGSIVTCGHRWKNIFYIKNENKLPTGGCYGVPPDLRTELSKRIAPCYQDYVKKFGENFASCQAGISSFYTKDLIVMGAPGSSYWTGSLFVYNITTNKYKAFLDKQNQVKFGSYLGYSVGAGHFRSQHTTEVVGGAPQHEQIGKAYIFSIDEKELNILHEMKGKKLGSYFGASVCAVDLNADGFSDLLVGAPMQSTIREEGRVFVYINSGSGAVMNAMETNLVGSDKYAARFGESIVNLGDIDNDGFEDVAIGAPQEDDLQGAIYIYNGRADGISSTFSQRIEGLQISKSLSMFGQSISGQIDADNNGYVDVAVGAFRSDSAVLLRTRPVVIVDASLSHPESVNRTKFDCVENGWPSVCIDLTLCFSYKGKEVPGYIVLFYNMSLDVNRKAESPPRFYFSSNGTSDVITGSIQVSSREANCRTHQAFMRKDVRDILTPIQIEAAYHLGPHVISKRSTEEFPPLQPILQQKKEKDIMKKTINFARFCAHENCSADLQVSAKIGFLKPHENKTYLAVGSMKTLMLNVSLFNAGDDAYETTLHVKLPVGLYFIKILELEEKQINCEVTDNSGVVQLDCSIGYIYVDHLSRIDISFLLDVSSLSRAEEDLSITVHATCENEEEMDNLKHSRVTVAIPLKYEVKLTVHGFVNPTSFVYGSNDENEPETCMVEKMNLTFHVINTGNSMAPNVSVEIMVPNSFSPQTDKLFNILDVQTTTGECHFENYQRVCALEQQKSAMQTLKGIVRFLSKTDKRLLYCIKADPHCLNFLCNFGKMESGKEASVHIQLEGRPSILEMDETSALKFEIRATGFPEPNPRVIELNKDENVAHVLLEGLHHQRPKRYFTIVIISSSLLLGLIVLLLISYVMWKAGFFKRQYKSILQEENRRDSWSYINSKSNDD
T1 sequence (P26010 20-798): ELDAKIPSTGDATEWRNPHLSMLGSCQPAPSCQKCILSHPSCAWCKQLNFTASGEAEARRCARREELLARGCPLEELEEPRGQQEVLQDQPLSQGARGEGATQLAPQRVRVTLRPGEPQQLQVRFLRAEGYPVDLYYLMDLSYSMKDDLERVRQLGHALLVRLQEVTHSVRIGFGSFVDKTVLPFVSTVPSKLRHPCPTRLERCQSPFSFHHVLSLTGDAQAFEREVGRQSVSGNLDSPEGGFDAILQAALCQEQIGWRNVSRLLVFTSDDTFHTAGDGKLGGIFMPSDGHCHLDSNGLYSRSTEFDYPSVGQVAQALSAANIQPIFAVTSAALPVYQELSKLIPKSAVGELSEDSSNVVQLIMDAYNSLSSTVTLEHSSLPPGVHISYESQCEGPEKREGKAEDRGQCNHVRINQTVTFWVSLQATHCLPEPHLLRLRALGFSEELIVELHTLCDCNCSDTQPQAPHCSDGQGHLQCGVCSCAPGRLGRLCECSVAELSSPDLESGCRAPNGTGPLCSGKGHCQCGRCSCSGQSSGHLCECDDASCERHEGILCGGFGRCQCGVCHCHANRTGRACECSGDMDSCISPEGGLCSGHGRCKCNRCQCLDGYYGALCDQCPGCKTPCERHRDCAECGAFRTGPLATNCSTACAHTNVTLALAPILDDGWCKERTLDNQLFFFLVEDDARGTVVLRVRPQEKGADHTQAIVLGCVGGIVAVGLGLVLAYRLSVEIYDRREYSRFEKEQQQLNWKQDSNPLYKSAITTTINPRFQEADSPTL
Test: α4β7-MAdCAM Cell Adhesion Assay
Type: cell-based
Conditions: N-Me-Arg substituted, as compared to SEQ ID NO:39
Procedure: α4β7-MAdCAM Cell Adhesion Assay
RPMI 8866 cells (Sigma #95041316) are cultured in RPMI 1640 HEPES medium (Invitrogen #22400-089) supplemented with 10% serum (Fetal Bovine Serum, Invitrogen # 16140-071), 1 mM sodium pyruvate (Invitrogen #11360-070), 2 mM L-glutamine (Invitrogen # 25030-081) and Penicillin-Streptomycin (Invitrogen # 15140-122) at 100 units of penicillin and 100 μg of streptomycin per ml. The cells are washed two times in DMEM medium (ATCC #30-2002) supplemented with 0.1% BSA, 10 mM HEPES pH 7 and 1 mM MnCl2. The cells are re-suspended in supplemented DMEM medium at a density of 4×10^6 cells/ml.
A Nunc MaxiSorp plate was coated with rh MAdCAM-1/Fc Chimera (R&D #6065-MC) at 200 ng per well in 50 ul per well in 1×PBS and incubated at 4° C. overnight. The solution was then removed by shaking, blocked with 250 ul per well PBS containing 1% BSA, and incubated at 37° C. for 1 hr. The solution was removed by shaking. peptides are diluted by serial dilution in a final volume of 50 ul per well (2× concentration). To each well, 50 ul of cells (200,000 cells) are added and the plate is incubated at 37° C., 5% CO2 for 30-45 min to allow cell adhesion. […] The plate is shaken for 5 min and the absorbance at 570 nm is measured. To calculate the dose response, the absorbance value of control wells not containing cells is subtracted from each test well.

## SEQ ID NO: 48: integrin antagonist peptide substituted with N-Me-Arg (C[NMeR]SDTLCK; disulfide 1-7)
  potency for α4β7 in cell adhesion assay: increased potency
